The text below walks through data of the RNAGym collection of RNA variant scans (doi:10.1093/molbev/msab373).

The chains are these.
B1: Azoarcus group I ribozyme (parent)
chain: GUGCCUUGCGCCGGGAAACCACGCAAGGGAUGGUGUCAAAUUCGGCGAAACCUAAGCGCCCGCCCGGGCGUAUGGCAACGCCGAGCCAAGCUUCGGCGCCUGCGCCGAUGAAGGUGUAGAGACUAGACGGCACCCACCUAAGGCAAACGCUAUGGUGAAGGCAUAGUCCAGGGAGUGGCGAAAGUCACACAAACCGG

The variants in the data set derive from B1. Put plainly: reverse-splicing fitness (ratio to wild type); higher = more active; in vitro selection; Mg2+ level not given. An outline of the steps: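 An in vitro group I ribozyme library with randomized positions was T7-transcribed and gel-purified. In triplicate, 10 pmol RNA in EPPS pH 7.5 was reacted with 50 pmoles of a 30-nt RNA substrate for 1 h at 37 °C across several added MgCl2 levels (1–48 mM), then stopped with EDTA. Products were reverse transcribed from a substrate-complementary primer, PCR-amplified and sequenced (HiSeq 4000). Fitness is a variant's read proportion after selection over that before, normalised to wild type.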
On to C82U A120C A145U C150U C169U U176A, for which the reverse-splicing fitness amounted to 0.0148. On to A111G A120C C150G C169U U176G, for which the reverse-splicing fitness was 0.0044. On to C82U A111C A120U A145U C150U C169U U176C, for which the reverse-splicing fitness was determined as 0.003. With C82A A111G A120C A145G C150U C169U U176C, the reverse-splicing fitness worked out at 0.0148. For C82G A111U A120U C150G C169G U176C the value was 0.00362.

Consider C82U A111C A145C U176C, for which the reverse-splicing fitness is 0.0915. For the variant C82U A111C A120C A145G C150U C169A, the reverse-splicing fitness amounted to 0.00905. As for A120C A145G U176C, the figure is 0.652.

As to C82U A120U A145U C169G U176G, the reverse-splicing fitness was 0.0013. C82G A111U A120U C169G U176A: the reverse-splicing fitness is 0.00374.

As for C82A A120U A145U C150U C169G U176C, the reverse-splicing fitness amounted to 0.00288.

For C82G A111G A120C A145U C150A C169A U176A, the reverse-splicing fitness stood at 0.0183. Take A111G A120U C150G C169A: the reverse-splicing fitness came to 0.00729. As for C82A A111C A120G C169U U176C, the reverse-splicing fitness was 0.0145.

Regarding C82U A111U A120U A145G C150U C169A U176A, the reverse-splicing fitness turned out to be 0.00543. Take C82A A145U C150U C169A: the reverse-splicing fitness turned out to be 0.00956. For C82G A111G A145G C150G C169U the value was 0.0102. For C82G A111G A120G C150G C169G U176G the value was 0.0053. Consider C82G A111C A120C A145U C150G C169A U176C, for which the reverse-splicing fitness was 0.0108.

For the variant A111C A120U A145G C150A C169U U176A, the reverse-splicing fitness turned out to be 0.00876.

In the case of C82G A111U A120U A145U C169G, the reverse-splicing fitness worked out at 0.00331. For A111C A120G C150U C169U U176A the value was 0.0337; for C82U A111C A145G C169U U176C, 0.0148. For C82U A111U A120G A145C C150A C169A U176G, the reverse-splicing fitness stood at 0.00517. Regarding C82G A111C A120U A145C C150U C169A, the reverse-splicing fitness amounted to 0.00304.

For C82U A111G A120U A145G C150G C169U U176C, the reverse-splicing fitness was 0.00581. Consider A111G A145G C169U, for which the reverse-splicing fitness came to 0.19. With C82A A111U A145U C150G U176G, the reverse-splicing fitness is 0.00528. Take C82G A120G A145U U176G: the reverse-splicing fitness amounted to 0.0047. For C82U A111C A120C A145U C150A C169U U176C the value was 0.014. For the variant C82A A120G C150G C169G U176G, the reverse-splicing fitness was found to be 0.00432. In the case of C82U A111G A120C A145C C150G, the reverse-splicing fitness came out at 0.00936. As for C82G A120U A145U C150G U176A, the figure is 0.00715. A111C A120C A145G C169G U176A: the reverse-splicing fitness was determined as 0.0201.

Take A111G A120U C169G U176C: the reverse-splicing fitness came to 0.0228.

Consider C82U A111C A120G C169A U176A, for which the reverse-splicing fitness was 0.0141.

With C82U A111G A120G A145G C150U C169A U176G, the reverse-splicing fitness came out at 0.00562. For C82U A111C A120U A145U C150A C169U U176G, the reverse-splicing fitness is 0.00245.

As to C82U A111G A145G C169U, the reverse-splicing fitness worked out at 0.0113.

In the case of C82U A111U A120G C150U C169G, the reverse-splicing fitness came to 0.00909. Consider A111G A120G C150A U176A, for which the reverse-splicing fitness was found to be 0.0188.

For C82U A111G A120U A145U U176A, the reverse-splicing fitness came to 0.00945. Turning to C82A A111G A120G A145U U176G, the reverse-splicing fitness came out at 0.00583. As to C82U A120G C150G C169G U176A, the reverse-splicing fitness amounted to 0.00641. As for C82A A111U A120U A145U C150U C169G U176G, the reverse-splicing fitness was found to be 0.00224.

For the variant C82U A111C A120U A145U C150G C169G U176G, the reverse-splicing fitness stood at 0.0024. Consider C82A A120C A145C C150A U176C, for which the reverse-splicing fitness stood at 0.0155. In the case of C82A A111U A145C C169G U176G, the reverse-splicing fitness was found to be 0.00654.

C82A A111G A120C A145U C169G U176G: the reverse-splicing fitness was determined as 0.00526. As for C82U A111G A145C C150U U176G, the figure is 0.0185; as for C82A A120C C150U C169U, 0.0173; as for A111C A120C A145G C150A C169U U176A, 0.0207. As for C82A A111U A120G A145C C150U, the figure is 0.00935; as for C82A A111U A120U A145U C150U U176G, 0.00385; as for C82A A111C A145U C150A C169U U176C, 0.0167. Take C82G A111C A120G C150A U176A: the reverse-splicing fitness is 0.014. For C82G A111G C150U C169G U176C the value was 0.0201; for C82G A111C U176A, 0.133; for C82U A111C C150U C169G U176C, 0.0161. As for C82A A111U A120C A145G C150G C169U U176A, the figure is 0.0146. On to C82A A111C A120U A145U C150A C169U U176A, for which the reverse-splicing fitness turned out to be 0.00378. C82G A111C A120U A145U C150G C169U U176A: the reverse-splicing fitness was found to be 0.00309. For C82G C150G C169A U176C, the reverse-splicing fitness worked out at 0.00997. As for A111U A120C A145U C150G C169U U176A, the figure is 0.0117.

In the case of C82U C150U U176C, the reverse-splicing fitness was determined as 0.294. As for A111C A120U C150A, the figure is 0.0711; as for C82G A111G A120G A145G C150G U176C, 0.0114.

C82U A111G A120G A145G C169U U176C: the reverse-splicing fitness worked out at 0.0164.

Take A111C A120G A145U C150G C169U U176G: the reverse-splicing fitness stood at 0.00442. For the variant C82A A111U A145U C169G, the reverse-splicing fitness stood at 0.00938. Turning to C82G A111C A120C A145C U176G, the reverse-splicing fitness was determined as 0.00711. Turning to C82U A145G C150A C169U U176C, the reverse-splicing fitness was 0.0152. For C82U A111U A120U A145G C150U U176G the value was 0.00322. For C82U A111G A145U C150A C169G U176A the value was 0.0131; for A120C A145U C150U U176C, 0.562; for C82A A111G A120G U176G, 0.00613. For C82A A111C A120G A145U C150A C169G U176A the value was 0.0138.

With C82U A120G A145C C150U C169U, the reverse-splicing fitness was found to be 0.00884.

On to A111U A120U A145U C150G U176C, for which the reverse-splicing fitness is 0.0208. For C82G A111G A120C A145G C150G the value was 0.0123; for C82U A111G A145C, 0.406. Regarding C82A A111G A120U C150G C169U U176C, the reverse-splicing fitness is 0.00511. Regarding C82U A111U C150A C169U U176A, the reverse-splicing fitness is 0.0198. Regarding C82G A111C A120C A145U C169G U176C, the reverse-splicing fitness was 0.0177.
